Measurements from the DeepSol protein solubility set.

Assay: soluble on expression in E. coli; label from the status in PepcDB or PDB records
In the case of “VPLPVPDFTASPMTISVGESVQFQDQTTNNPTNWEWTFEGGQPAMSTEQNPLVSYSHPGQYDVTLKVWNASGSNTITKEKFITVNAVMPVAEFVGTPTEIEEGQTVSFQNQSTNATNYVWIFDGGTPATSEDENPTVLYSKAGQYDVTLKAISASGETVKTKEKYITVKKAPVPA”, the “soluble on expression in E. coli” value is reported as “not soluble”.
With “MGHHHHHHSHMIINWNQVSVLWKCLLKQSASYQDRRQSWRRASMKETNRRKSLHPIHQGITELSRSISVDLAESKRLGCLLLSSFQFSIQKLEPFLRDTKGFSLESFRAKASSLSEELKHFADGLETDGTLQKCFEDSNGKASDFSLEASVAEMKEYITKFSLERQTWDQLLLHYQQEAKEILSRGSTEAKITEVKVEPMTYLGSSQNEVLNTKPDYQKNYRTRAKSLTVWSW” the “soluble on expression in E. coli” value was “not soluble”.
In the case of “MSLRMRVGKFDYLNNFLPYYFLNEKVEIVEANPREMASMLLSGRIDYAPVPAFFYLKNRERLRHYEFCVASEGKVLSVVVVSRKKELDDGSIAVTPHSLTSVNLLKILLAERGMKNMLVEVNTAKASEMLELCPHALVIGDEAIKARMIYKVVMDLGEEWYELTSLPAVFGISASLKETNAEEMDRKILMATEEGYRRFDEVVRAAEKAFKMPREFLEEYFRTLKFRLSSKERRGLDEFEKYCRDYEGHHHHHH”, the “soluble on expression in E. coli” value is reported as “soluble”.
With “ACTQPSDWVPPAKNDALVIALKKVIGGRLSDAFHIRDKLQRRDAIAAVKDDVIQQLAGRLEVEGWNLAELLKEFGELEYRTMRDALLDTKVRIDGRSLEAVRP” the “soluble on expression in E. coli” value was “not soluble”.
With “AHHHHHHGSKIARVNGLWITIPNVRYSFFNTPYIGHRIGTAVDVYFEDRALFPFEEGKLIEVRKIRTPRYIPVDHDYLMVFKLGEFCLKVLHVDPSVKIGEKVFLGDEIGKLRLSGFFSPWSDKHAHFEVRDCNDRYRARGAFPLFPEVKPLVPIVKGNTFEVVERKGHYLWLKPLETKGKGMTPLGNIEGGLPHYRYGAIFSGREGKLFGIDVKAQEILENGVGIFKPNFEVLANGVKVRGIGVYCNEERVKLIGGNFEVGDIIKIEIKARLGT” the “soluble on expression in E. coli” value was “not soluble”.
For “MISYQKAKLAKNLAISTASKWLFVHSSTGGSATNLSIAQYATLINGIQSAIKCQVILTAGKGERERAVELAEKLTDQNVVIYDKNDGLADFTRSLACADLFIAGSTGPLHIAGGLNIPTVGFYPSRLSATPRRWRPINQVDKHLAFCPPSGKQCEMDLTLISIEQALTSVIPFIKKMWQLSLEHHHHHH”, the “soluble on expression in E. coli” value was “not soluble”.
In the case of “GSMHEYSVVSSLIALCEEHAKKNQAHKIERVVVGIGERSAMDKSLFVSAFETFREESLVCKDAILDIVDEKVELECKDCSHVFKPNALDYGVCEKCHSKNVIITQGNEMRLLSLEMLAE”, the “soluble on expression in E. coli” value is reported as “soluble”.
With “MRDQMLPSIILFDGVCNFCNYWVQFIIKRDPQATFQFASLQSEVGQELLEKHSIDRSTDSVVLIMEGQAFVCSDAVLKIVAQLDSPIRWLKWAVIFPRFLRDFIYRIVARNRYKWFGKRDECQIPTKEQRSRFLLEHHHHHH” the “soluble on expression in E. coli” value was “soluble”.
In the case of “MTKLVIDTVGPATSVQDAGRHGAQRYGLPPSGAMDRLSLAAANVLVGNSAFAAAIELGPLGAKLSVRDGAVRLALTGAERPAALDGQPLAFNESFTLAEGQILTLGVARGGVFSYLGIEGGVGGEPMFGSLAVNARAGLGSPYPRPLQAGDAIAVKSAAPSVERRLDLPEQQDTPIRVVLGPQDDEFGAAVEIFLTGEWTMSATSDRMGYRLDGPQISHLHGHNIVSDGTVDGSIQVPGSGQPIVLMPDRGTSGGYPKIATVISADLGRLAQRQPGRPFRFQAVSVEEAQDAYRTMAKLIRSLPDLLRDAQHAIIDLDALLSANVAGTAIDALAAELEHHHHHH”, the “soluble on expression in E. coli” value is reported as “not soluble”.
In the case of “MDSLMRVFSHRSPPPSFGFACDVGAHPSSTAQNLPMTYGSVREMIDDFSIVFGVPKYRTSKPKKVTRKFSFTRLLQPIDNLVTCPACSNIHPSDTICDACYAKVHQLTSEIKKKMMQYNPYVGEKQDKEVYVKFRGEPDAPAAVVKGKRVLEIEKERPTWFKKLTLKE”, the “soluble on expression in E. coli” value is reported as “not soluble”.
With “MGSDKIHHHHHHMKPIIIFFSLFLIPLFADDLKSGFGEEYYKLDIDQKRQIFFIKMNEMFDQSFKKIEQERAFIEAFFKDAYKTGFRTSNQINLEKLITIKNKYRIENLYDFAEYKKRIQKIPKSMGIAQALVESATGTSRFAREANNLFGEWTWGEKGLIPDLRHPDKKHKIKIFDSLQDSVDSYVLNLNRHFAYEKFRDARAKFESEGKEITGLEAIKTLDSYSERKGYYINLITKIIKRYNLEKYDTNSNNT” the “soluble on expression in E. coli” value was “not soluble”.
